From patent US20220089694A1 (US Dept. of Health and Human Services, published 2022)

T1: EBOV GP on pseudotyped lentiviral particles (Ebola virus (EBOV), UniProt Q05320 33-676)
T1 sequence: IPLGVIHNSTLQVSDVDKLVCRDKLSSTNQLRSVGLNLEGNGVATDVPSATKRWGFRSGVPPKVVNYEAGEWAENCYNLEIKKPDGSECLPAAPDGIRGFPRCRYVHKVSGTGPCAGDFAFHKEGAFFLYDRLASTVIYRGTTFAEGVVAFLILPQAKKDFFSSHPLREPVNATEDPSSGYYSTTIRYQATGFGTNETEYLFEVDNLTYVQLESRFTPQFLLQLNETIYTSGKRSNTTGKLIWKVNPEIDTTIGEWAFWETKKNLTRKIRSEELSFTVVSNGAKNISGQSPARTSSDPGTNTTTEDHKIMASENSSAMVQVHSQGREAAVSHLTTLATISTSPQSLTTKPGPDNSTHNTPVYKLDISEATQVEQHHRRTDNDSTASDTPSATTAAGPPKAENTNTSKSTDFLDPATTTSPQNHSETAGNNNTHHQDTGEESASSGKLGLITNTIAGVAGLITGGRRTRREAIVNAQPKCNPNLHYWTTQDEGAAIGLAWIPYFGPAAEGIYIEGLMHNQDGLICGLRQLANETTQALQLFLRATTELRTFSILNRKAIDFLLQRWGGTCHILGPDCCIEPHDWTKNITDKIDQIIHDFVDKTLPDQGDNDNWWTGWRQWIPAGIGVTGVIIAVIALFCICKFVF


What was measured:
[1] = target: T1, EBOV GP on pseudotyped lentiviral …; test: cell-based or functional assay
[2] = target: T1, EBOV GP on pseudotyped lentiviral …; test: cell-based or functional assay; remark: listed apart in the source

Binder | IC50, neutralization activity in a pseudotyped virus entry assay [1] [µg/mL] | % EBOV Neut. (10 µg/mL) [2] [%]
EboV.YD.03 IgG (antibody, V domains shown) VH: QVQLQESGPGLVKPSETLSLTCTVSGDSLSSSYWSWIRQSAGKGLEYIGRTYVSGNTKYNPSLKSRVTMSVDTSKNQFSLRLTSVTAADTAVYYCARIRVLPAAMLRGDYWYFDLWGRGTLVTVSS VL: SYELTQLPSVSVSPGQTASITCSGDKVENKYVCWYQQKSGQSPVLVIYEDSKRPSGIPERFSGSNSGNTATLTISGTQTMDEADYFCQAWDSSIGVFGTGTKLTVL | 1.1 | 97.3
EboV.YD.02 IgG (antibody, V domains shown) VH: QVQLVQSGAEVKKPGTSVKISCKASGYSFTSKYMHWVRQAPGQGLEWMGKINPSGGRRDYAQKFQGRVTMTRDTSTSTVYMELSSLRSGDTAVYYCARDMHGVLSWYHALDYWGQGTLVTVSS VL: DIRVTQSPSSLSTSVGDRVTITCRASQDIGRYLNWYQQKPGKAPKLLIYGASSLQSGVPSRFSGSGSGTDFTLTISSLQPEDFATYYCQQGYRIPITFGQGTRLEIK | 1.6 | 70.8
EboV.YD.01 IgG (antibody, V domains shown) VH: QVRLVQSGGGLVKPGGSLRLSCAASGFTFSTFAMHWVRQAPGKGLEWVSSISRSSGSINYADSVKGRFTISRDNAKNSLFLQMNSLRADDTAVYYCARENTIPFGGGVVLERASHFDYWGQGTTVTVSS VL: DIRVTQSPSSLSASVGDRVTIICRASQSSSTFLNWYQQKPGKAPNLLIYAASSLQSGVPSRFSGSGSGTDFTLTISSLQPEDFATYYCQQSYSAPYTFGQGTKVDIK | 7.1 | 55.1
EboV.YD.04 IgG (antibody, V domains shown) VH: QVQLVESGGGLVKPGGSLRLSCAASGFMFSNAWMNWVRQAPGKGLEWVGRIKSRSDGGTTDYAAPVKGRFTFSREDSKNMLYLQMNSLKREDTAVYYCTTRVSIFRGPIEDVWGQGTTVTVSS VL: QPVLTQPPSVSGAPGQRVTISCAGSSSNIGAGYDVYWYQQLPGTAPKLLIYGNNNRPSGVPDRFSGSKSGTSASLAITGLQAEDEAEYYCQSYDSSLRDSYVFGSGTKVTVL | 0.5 | 98.8
